# Reference: patent US10556936B2, “Immunogenic proteins and fragments thereof from allergenic mites” (ALK-ABELLÓ A/S, priority 2016, dated 2020)
# Marks after values point to notes of the source that are not given here.
# Tests used:
# [1] = tested on: HDM specific T-cell lines from HDM allergic donors; assay: T cell reactivity of protein: IL-5/IFNg FluoroSPOT or 72 h T cell proliferation in HDM specific T-cell lines (Example 2); assay type: cell-based, human; details: responding donors of tested HDM allergic donors
# Text: PBMCs from European HDM-allergic individuals were recruited in the Copenhagen region (defined by clinical history of allergy to house dust mite and specific IgE to group 1 and group 2 major allergens from Der p and/or Der f and with measured specific IgE (CAP) >0.7 kU/L towards Der p/f 1 or Der p/f 2. In addition, PBMCs from 10 US HDM-allergic individuals were recruited in San Diego (defined by Der p extract IgE titers greater than 0.35 kUA/L). PBMCs were isolated from whole blood by density gradient centrifugation according to manufacturers' instructions (Ficoll-Hypaque, Amersham Biosciences, Uppsala, Sweden). Der p- and Der f-specific extract IgE titers were determined using the ImmunoCAP system (Thermo Fisher, Uppsala, Sweden). In a separate series of experiments, pooled plasma from 10 European and 10 American HDM atopic individuals from the San Diego region, respectively, was utilized to run 2D immunoblots to elucidate IgE and IgG reactivity towards the proteins, which had at least one peptide with positive T cell response.
# T cells reactivity was determined by establishment of HDM specific T-cell lines according to standard methods. In short, PMBCs from HDM allergic donors were cultured for 2-3 weeks in the presence of house dust mite allergen extract. The responses to proteins having SEQ ID NOs 1-44 were assessed by IL-5/IFNg FluoroSPOT (Mabtech FS-0108-10) according manufacturer protocol, (after 2 weeks) or proliferation in a standard 72 h T cell proliferation assay, as described in Henmar H et al., Clin Exp Immunol 2008; 153(3):316-23. (after 3 weeks). In addition these established T cell lines were used for further characterization and epitope mapping.
# [2] = tested on: basophils in whole blood from HDM allergic donors; assay: Basophil Activation Test (BAT); assay type: cell-based, human; details: responding donors of tested HDM allergic donors; whole blood stimulated 1 h
# Summary of the method: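 Basophil activation was read by flow cytometry as increased surface activation markers. The stimulus was a 1 h exposure of blood from 14 HDM-allergic donors to test proteins or major mite allergens at graded concentrations (e.g. 1–1000 ng/ml).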
Molecule,% T cell responding donors to protein [1],% responding donors in BAT Assay [2]
"40 (protein, listed as Dermatophagoides pteronyssinus) KSAPEGCFRAAVLDHVHQTDARHLSNTAKIIDLNFKVYEDAAALAKKQGADIIVFPENGLIYSILSREKADEFASDIPDAEVNACTLDSKFVYNRLACLAQKHQMFVVADLIDRKSCEELGINNVSDSCPADKKFLFNTAVLFDRQGKLLGRYHKMHLFGEISMNPPPKPELLVIDTELGRLGMQICFDMIFKTPGYLLAQENKFDTMLFPTWWFDESPMLSSSQYQMAWAFGNNVTLLASNIHRIEVGSRGSGIYVGPHRTLAAALYDDSVERLVLANVPIKPKETDQSACPLDSEIIEVPQQIPIPKSVKYHHQNLNLKDVTLLQLSSNESEVHLCHKGVCCQFEYRLAMKDQPQESWVDRVPLLANMLHYLTPEERYYLLIANRTRPGAYPWSEEFCAVVVCPSSRWNFGKMQKDCSKIGSNQELSSRFVHAKLRGKFSEDTAVYPSAVGSKNQLIYPENKWKFWKVNVPNEPEYFIELGAKDNSESRAMELGALVLYGRNYNRDPRYEQKALPIN",15 of 27,0 of 8
"38 (protein, listed as Dermatophagoides farinae) QSRDRNDKPYRIVCYWGTWAFYRPASGKFQAENVNPNLCTHIMYGFAKLQNNKIALYDPDLDDGDEDWNSGLQWGHGMIRRMVNLRTYNPHLTTMISLGGWNEGSDKYSIMVRDPASRKIFIQSVLHLLAEFDLDGLDFDWEYPAMQASGDSDRKPGRAEDKEDFVTLLRELHEAFQPHGYVLSSAVSAGKPTIDRAYNIPEVSKYLDFINLMSYDYHGGWESHTGHNAPLNSYKNANELDKEFTVTYSVEYWLNHGVDPKKLVLGIPLYGRTFTLAGSEHGIGAPTIGKGGESGTITRTIGMLGYNEICTMIKQGWQLYRDEIERIPYAVHANQWIGYDDRESVNEKLNLLMAKHLGGAMVWSIDTDDFVGNCVGVKYPLLRSISKKLNNVDGPDPDIKRYHYHTSTAKPHTDGTTSTHHDHKTTTTKHHKTTQPHHKTTQPHHTQTITTTTERPHGKFQCHQAGFFADPENPRKFHQCVDFGGHLKDYEFMCGEGTHYDEKLHICVR",11 of 27,0 of 8
"37 (protein, listed as Dermatophagoides pteronyssinus) DTPANCTYEDIKGLWLFEETEPIKDRWEKCPEHQQQREKYSKKIFIRLDFPNVAVDKFGNIGEWTMIYNQGFEVKINYRKYFAFSAYERKSENNVLSYCHKTQPGWSHDVLGNNWACYVGHKVNNWNDDDVSKTTTVGAEKFPVKQHSERELYLQNINVEHILSQKHIDHLNSQQKSWKAIVYPDLQSKSIEHLIQMAGGRKSRIINRPKPLRATEQQKQLARSLPESFDWRNLNGIDYVSPVRDQGKCGSCYTFASMAMLESRIRIQTNNTFKPIFSTQEVVDCSEYSQGCDGGFSYLIAGKYAQDFGVIDESCYPYKGVTGKCQNQQNFNQTNEKCKQRTYTIDYKYVGGYFGACNEEAMQIELVQNGPIAVGFEVYGDFFGYSEGIYSHQPSNESNDQHQQIKAEFNPFEMTNHAVLIVGYGKDKKTGEKYWIVKNSWGKQWGMDGYFWMRRGTDECAIESLAMAATPIPN",4 of 27,0 of 8
"33 (protein, listed as Dermatophagoides pteronyssinus) IEQVHIALGSNETEIIVTWTEPHKHDDKTSDAVVYYGQAKSSFDQKVKAISEYFKDDKTKYTTYRALLTGLLPGTEYHYRIQMDDLESSIFEFKTLKTGEENWLPRFAIYGDLGYVNEQSLPYLKKDVEQNLFDVIFHIGDFAYDLNDEHGKVGHHFMRSIEPVASKVAYMTCPGNHERHDNFSHYDSRFSMIGDRSQPIHSDKLNKRLNNHFHSMTIGPATIILFSTEYYYYTKYGWQQIEHQYRWLEQELKRANENRQKHPWIIVMGHRPLYCLKMGDDSCDHQTMERKEIRQGIRMHDEGERQYGLEDLFFKYGVDIQFYGHEHFYARLFPIYKYKMYNGTKSKNPYDHPGAPIHITTGSAGNKELHPEFNHLNDWVAEHFYDYGYTRLMFEDKYRIRLQQISDDQHGKVLDEIEIVKSSPQPHWMNVEHH",10 of 27,1 of 8*
"29 (protein, listed as Dermatophagoides pteronyssinus) MVKIGINGFGRIGRLVLRAAIKKGVEVAAINDPFLDVKYMVYMFKFDSTHGRYQGEVKEEGGLLVVDGQKIQVFQERNPAEIPWGKVGADYVVESTGVFTTIEKAKAHLAGGAKKVIISAPSADAPMYVMGVNHDKYDPKQQIISNASCTTNCLAPLAKVINDKFGIENGLMTTVHAITATQKTVDGPSGKLWRDGRGAGQNIIPASTGAAKAVGKVIPELNGKLTGMALRVPVPDVSVVDLTVTLKNPASYDEIKAAVKAAAESDHWKGILEYTDEEVVSSDFISDTHSSIFDAKAGIALTPTFVKLIAWYDNEFGYSNRVVDLIKYVASK",2 of 27,1 of 8*
"25 (protein, listed as Dermatophagoides pteronyssinus) MSSSSGKKYDFSGKVALVTGSSSGIGAAIALQFAQYGAQVTITGRDAAALESVAKRIEAESGHQPLQIVGNLLDQSLPAKLIDGTISKYGRLDFLVNNAGFSTQHRDIHDEKLMEAFDQVYGLNVRAVVQLSQLAATHLEKSKGNIINISSNLSMMPVHIIYSSSKAALDMITKTMAMEFGKKGVRVNSINPGPVATQFMRSLGMPVTFLKENEEFVKELTLLKFVAQPVEIANLASFLASDDARNMTGSIVVNDTGSLLAPRVDFKKLDEIKKK",3 of 26,1 of 8*
"6 (protein, listed as Dermatophagoides pteronyssinus) MVKAVVVLKGDPNVSGTIFFEQQDNGPVKVTGSVQGLKPGLHGFHVHEFGDNTNGCTSAGAHYNPLNKTHGAPNDEERHVGDLGNIEANDKGVANVVIEDSLISLTGEKSIVGRSLVVHADPDDLGRGGHELSKTTGNAGGRLVCGVIGVTK",0 of 27,1 of 8*
"13 (protein, listed as Dermatophagoides farinae) KKTKDCDVEKPIRECLKNGLLRYSDGQKINQFPDSIEDLNRACEELKKSETCARNFIDTCTETSYEKRSLDSLLDGIQRVLKRLCRSQSKKEQLLQNVGCANSVVQDTKLCLKNYRMLVFAANKLNDKSKIMRILCCKSRKVAPCIGEAMKSKGNAVCSAKNIDYFREMHQNIKAEMTAVVCSDFERDQCENVEVPAITEAEYKDQNIFNPLRDLYKKVILA",6 of 29,0 of 16
